Measurements from patent US20170312350A1.

B1: TCR R10P1A7 (TCR, V domains shown)
V domain 1: GEDVEQSLFLSVREGDSSVINCTYTDSSSTYLYWYKQEPGAGLQLLTYIFSNMDMKQDQRLTVLLNKKDKHLSLRIADTQTGDSAIYFCAESKETRLMFGDGTQLVVKP
V domain 2: GAVVSQHPSWVICKSGTSVKIECRSLDFQATTMFWYRQFPKQSLMLMATSNEGSKATYEQGVEKDKFLINHASLTLSTLTVTSAHPEDSSFYICSARAGGHEQFFGPGTRLTVLE
B2: TCR R10P1A7 expressed from lentiviral construct 1863R (MSCV-R10P1A7A-2A-R10P1A7B-WPRE) (TCR, V domains shown)
V domain 1: B1 V domain 1
V domain 2: B1 V domain 2
B3: TCR R10P1A7 expressed from lentiviral construct 1864R (MSCV-R10P1A7B-2A-R10P1A7A-WPRE) (TCR, V domains shown)
V domain 1: B1 V domain 1
V domain 2: B1 V domain 2

Experiments:
MHC/NYESO1-001 tetramer = assay: tetramer staining, flow cytometry of RNA-electroporated CD8+ T-cells (unrelated-peptide tetramer)
[1] = target: MHC/IGF2BP3-001 tetramer (human); assay: tetramer staining, flow cytometry of RNA-electroporated CD8+ T-cells
[2] = target: MHC/IGF2BP3-001 tetramer (human); assay: tetramer binding by flow cytometry, lentivirally transduced primary T-cells, donor 1
[3] = target: MHC/IGF2BP3-001 tetramer (human); assay: tetramer binding by flow cytometry, lentivirally transduced primary T-cells, donor 2

| Binder | % NYESO1-001 TET-positive primary CD8+ T-cells (MHC/NYESO1-001 tetramer) [%] | % IGF2BP3-001 TET-positive primary CD8+ T-cells [1] [%] | % of CD3+ Tet+ [2] [%] | % of CD8+ Tet+ [2] [%] | % of CD3+ Tet+ [3] [%] | % of CD8+ Tet+ [3] [%] |
| --- | --- | --- | --- | --- | --- | --- |
| B1 | 1.53 | 6.78 | – | – | – | – |
| B2 | – | – | 2.3 | 3.93 | 0.99 | 1.79 |
| B3 | – | – | 15.2 | 22 | 8.12 | 11.7 |
